Ends that are not written are not given here.
Tests used:
[1] = Storage modulus (G′) by rheometer; type: physicochemical; conditions: for storage modulus (G′), comparison in words: at 30 rad/s
Protocol: The crosslinking time and storage modulus (G′) were analyzed using a rheometer. Hydrogel samples with 20 mm diameter and 5 mm thickness were prepared. The crosslinking time was measured over time at an oscillation frequency of 1 Hz and a stress sweep of 10 Pa. The storage modulus was measured at an oscillation frequency of 1 Hz and a stress sweep of 1-100 Pa. All measurements were performed in triplicate and averaged.
Specifically, the storage modulus G′ was obtained by oscillatory shear measurements at room temperature using a constant stress rheometer (Discovery Hybrid Rheometer-3 from TA Instruments, USA). For the measurements, hydrogel samples with a defined shape of 20 mm diameter and 5 mm thickness were prepared. The cured hydrogel was placed on a lower rheometer stage, and an upper rheometer fixture (diameter 20 mm) was lowered until it made contact with the top surface of the sample. The value of G′ was then measured at oscillation frequency 1 Hz in a stress sweep test of 1-100 Pa. This stress sweep was performed in order to determine the limit of the linear viscoelastic range. All the G′ measurements were obtained in triplicate. Error bars in figures represent the standard deviation from the mean value (see FIGS. 7 and 9).
Specifically, it is well known that the mechanical properties of hydrogels are closely related to the crosslinking density. The storage modulus (G′) measured by rheological analysis is a reliable value representing the rigidity of the subjected hydrogel. The G′ of HA-Ty hydrogel without any peptide addition was 156.6 Pa at a strain of 1% at 30 rad/s (see FIG. 10).

fibroblasts = experiment: Cytotoxicity test by MTT assay; type: cell-based; conditions: riboflavin 0.1 μM-10 mM, YC7 0.1 μM-1 mM, 24 hr at 37° C.
Protocol: To investigate the biocompatibility of the hydrogels, fibroblasts were used in a cytotoxicity test. Fibroblasts were seeded with the density of 4×10^4/well in 24 well plates. […] Finally, cell toxicity was evaluated by MTT assay. Fibroblasts were grown with the density of 1×10^5/well in 12 well dishes to test their proliferation in different hydrogels. The grown cells area was scratched using pipette tips to create a wound-like environment and the hydrogels were added to 12 transwells, which were then placed in the dishes where cells had been grown. The proliferation effect of cells was evaluated depending on the degree of cell filling in the scratches.

[2] = Swelling test of lyophilized hydrogels in distilled water; type: physicochemical; conditions: distilled water at 25° C.
Protocol: Swelling and degradation tests on the hydrogels were conducted by the following procedures. First, HA hydrogels were photocrosslinked with different peptide sequences (YYACAYY (SEQ ID: 4), di-YYACAYY (SEQ ID: 5), YYAYY (SEQ ID: 7), YYCYY (SEQ ID; 8), and YYAHAYY (SEQ ID: 6), 0.1 mM each). Swelling experiments were performed by measuring the increase in weight of the lyophilized hydrogels. Lyophilized hydrogels were placed in 1 mL distilled water at 25° C. The swelling ratio (S %) of hydrogels in distilled water was calculated using S %=[(Wt−W0]/W0)]100, where Wt is the weight of the swollen hydrogel at time t, and W0 is the weight of the dry gel at time 0. Degradation tests were performed by measuring the weights of hydrogels in PBS containing 0.01 mg/mL hyaluronidase at different time points.

[3] = Solubility of the peptide in hydrogel preparation; type: physicochemical

| Substance | storage modulus (G′), comparison in words [1] | other results |
| --- | --- | --- |
| YYAYY [YA5, tyrosine-based peptide; the code also labels the HA-Ty hydrogel photocrosslinked with it] | higher than that of YH7 | – |
| YYCYY [YC5, tyrosine-based peptide; the code also labels the HA-Ty hydrogel photocrosslinked with it] | higher than that of YH7 | – |
| YYACAYY [YC7, YYACAYY] | – | cytotoxicity (fibroblasts): no cytotoxicity |
| di-YYACAYY (YYACAYYYYACAYY; cysteine pairing not given here; also: dimer of YYACAYY) [DYC7, tyrosine-based peptide; the code also labels the HA-Ty hydrogel photocrosslinked with it] | highest G′ | storage modulus (G′) ([1]; strain of 1% at 30 rad/s, peptide 0.1 mM): 297.6 Pa; swelling ratio, comparison in words [2]: slightly higher than that of YC7; solubility [3]: partial insolubility |
| YYAHAYY [YH7, tyrosine-based peptide; the code also labels the HA-Ty hydrogel photocrosslinked with it] | almost the same G′ as HA-Ty | – |

Source: US11389568B2, “Tyrosine peptide cross-linked biocompatible hydrogel and method of production” (SEOUL NATIONAL UNIVERSITY R&DB FOUNDATION, priority 2016, dated 2022)
